In the nanobody polyreactivity screen of Harvey et al. (2022):

Assay: yeast display, Sf9 membrane polyspecificity reagent, FACS + sequencing; frameworks hold sequencing errors
How it was run: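 Synthetic nanobody libraries on Saccharomyces cerevisiae BJ5465 were galactose-induced for 36–48 hours, stained 1 hour at 4 °C with 10% biotinylated, detergent-solubilized Sf9 membrane reagent and enriched on streptavidin microbeads. FACS then separated cells into low and high (top ~1%) gates by anti-HA (expression) and streptavidin (reagent binding) fluorescence. Genes were colony-PCR amplified, MiSeq 2 × 250 sequenced and CDR-length filtered. A clone's polyreactivity label is that of its gate of origin.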

Row | Sequence | polyreactivity (PSR sort gate)
1 | QVQLVESGGGLVQAGGSLRLSCAASGLIFKYNDMGWYRQAPGTEREFVAAISWRGGRTYYADSVKGRFTISRDNEKNTVYLQMNSLKPEDTAVYYCNAGYRIAQFPSPHIAYYGYGYWGQGTQVTVSS | high polyreactivity
2 | QVQLVESGGGLVQAGGSLRLSCAASGLIFLWYVMGWYRQAPGKEREFVAAISWNGGGTYYADSVKGRFTISRDNAKNTVYLQMNSLKPDDTAVYYCAAQTYSNDYWGQGTQVTVSS | low polyreactivity
3 | QVQLVESGGGLVQAGGSLRLSCAASGLIFNIYAMGWYRQAPGKERELVAAISKSGGSTYYADSVKGRFTISRDNAKNTVYLQMNSLKPEDTAVYYCAAPYLVRSQRYYYWGQGTQVTVSS | high polyreactivity
4 | QVQLVESGGGLVQAGGSLRLSCAASGLIFPRYGMGWYRQAPGKERELVAAISWSGGSTYYADSVKGRFTISRDNAKNTVYLQMNSLKPEDTAVYYCAVLSNRGVYGSDYWGQGTQVTVSS | high polyreactivity
5 | QVQLVESGGGLVQAGGSLRLSCAASGLIFPSYAMGWYRQAPGKERELVATINRGSRTNYADSVKGRFTISRDNAKNTVYLQMNSLKPEDTAVYYCAAHYTTFIPSPDGDYLGQGTQVTVSS | low polyreactivity
6 | QVQLVESGGGLVQAGGSLRLSCAASGLIFPYYALGWYRQAPGKERELVAAISWRGGNTYYADSVKGRFTISRDNAKNTVYLQMNSLKPEDTAVYYCNTVQYRNEMGYWGQGTQVTVSS | high polyreactivity
7 | QVQLVESGGGLVQAGGSLRLSCAASGLIFQHNAMGWYRQAPGKEMELVAAISRSAGSTYYADSVKGRFTISRDKAKNTVYLQMNSLKPEDTAVYYCARQYGYQPVRYGYWGQGTQVTVSS | low polyreactivity
8 | QVQLVESGGGLVQAGGSLRLSCAASGLIFQYYAMGWYRQAPGKERELVAAISGSGVRSYYADSVKGRFTTSRDNAKNTVYLQMNSLKPEDTAVYYCNTLRQDIIRGDYWGQGTHVTVSS | high polyreactivity
9 | QVQLVESGGGLVQAGGSLRLSCAASGLIFQYYAMGWYRQAPGKERELVASISGSGSSTYYADSVKGRFTISRDNEKNTVYLQMYSLKPEDTAVYYCAAGWGRGWYDYWGQGTQVTVSS | high polyreactivity
10 | QVQLVESGGGLVQAGGSLRLSCAASGLIFRPYAMGGYRQAPGKARELVAAITSGGSTDYADSLKGRFTISRDNAKNTVYLQMNSLNPEDTAVFYCNADFYPHDGYPWQGDYDYWGQGTQVTVSS | low polyreactivity
11 | QVQLVESGGGLVQAGGSLRLSCAASGLIFRRYAMGWYRQAPGKERELVAAINLSGGSTYYADSVKGRFTISRDNAKNTVYLQMNSLKPEDTAVYYCNAVSVYSLPRVGGRYDYWGQGTQVTVSS | high polyreactivity
12 | QVQLVESGGGLVQAGGSLRLSCAASGLIFRRYTMGWYGQGPGKERELVAAITSSGGNTYYADSVKGRFTISRDNAKNTVYLQMNSLKPEDTAVYYCNNPGTHNYYYWGQGTQVTVSS | high polyreactivity
13 | QVQLVESGGGLVQAGGSLRLSCAASGLIFSAYDMGWYRQAPGKERELVASITSGGSTYYADSVKGRFTISRDNAKNTVYLQMNSLKPEDTAVYYCNADGGWYPYRWRYIEGEYWGQGTQVTVSS | low polyreactivity
14 | QVQLVESGGGLVQAGGSLRLSCAASGLIFSDNAMGWYRQARGKEREFVASISDSGTTTYYADSVKGRFTISRDNAKNTVYLQMNSLKPEDTAVYDCNARPGQSGARFGYWGQGTQVTVSS | high polyreactivity
15 | QVQLVESGGGLVQAGGSLRLSCAASGLIFSFYAMGWYRKAPGKERELVATISNTDSTNYADSVKGRFTISRDNAKNTVYLQMNRLKPEDTAVYYCAADVWDGRYLYTGVYDYWGQGTQVTVSS | low polyreactivity
16 | QVQLVESGGGLVQAGGSLRLSCAASGLIFSKNVMGRYRQAPGKERELVAAISQRGGSTYYADSVKGRFTISRDNAKNTVYLQMNSLKPEDTAVYYCAADNTVSHEDYWGQGTQVTVSS | high polyreactivity
17 | QVQLVESGGGLVQAGGSLRLSCAASGLIFSRNAMGRYRQAPGKERELVAAITTGGSTYYADSVKGRFTISRDNAKNTVYLQMNSLKPEDTAVYYCAAAPGYIYEYWGQGTQVTVSS | low polyreactivity
18 | QVQLVESGGGLVQAGGSLRLSCAASGLIFSRYAMGWYRQAPGKERELVAAITYRTVRTYYADSVKGRFTISRDNAKNTVYLQMNSLKPEDTAVYYCAADSARQRDYWGQGTQVTVSS | high polyreactivity
19 | QVQLVESGGGLVQAGGSLRLSCAASGLIFSSNAMGWYRQAPGKERELVAAISSRGGRTYYADSVKGRFTISRDNAKNTVYLQMNSLKPEDTAVYYCAKYFTEVSRHTYDYWGQVTQVTVSS | high polyreactivity
20 | QVQLVESGGGLVQAGGSLRLSCAASGLIFSSNVMGWYRQAPGKERQLVAAIRQRGGSTRYADSVKGRFTISRDNAKNTVYLQMNSLKPEDTEVYYCAADTYYSHSWDSYDYWGQGTQVTVSS | low polyreactivity
21 | QVQLVESGGGLVQAGGSLRLSCAASGLIFSTYAMGWYRQAPGKERELVASISSSGGSTYYADSVKGRFTISRDNAKNTVYLQMNSLKPEDTAVYYCAAVTKRYQPTYYITYGYWGQGTQVTVSS | high polyreactivity
22 | QVQLVESGGGLVQAGGSLRLSCAASGLIFSYSALAWYRQAPGKERELVGSMSTSGGNTNYADSVKGRFTISRDNAKNTVYVQMNSVKPVDTAVYYCAAGIGKQYHTGYPTAGRKYGYWGQGTQVTVSS | high polyreactivity

Row | Sequence | polyreactivity (PSR sort gate)
23 | QVQLVESGGGLVQAGGSLRLSCAASGLIFSYYAMGWYRQAPGKERELVAAITGSGGTTYYADSVKGRFTISRDNAKNTVYLQMNSLKPEDTAVYYCATPPPEVWQRWYREYDYWGQGTQVTVSS | low polyreactivity
24 | QVQLVESGGGLVQAGGSLRLSCAASGLIFSYYAMGWYRQAPGKERELVGAITGSGGSTYYADSVKGRFTISRDNAKNTVYLQMNSLKPEDTAVYYCAAGRYAYTLSRKYDYWGQGTQVTVSS | high polyreactivity
25 | QVQLVESGGGLVQAGGSLRLSCAASGLIFSYYPMGWYRQAPGKERELVAAITGSGGTTYYADSVKGRFTISRDNAKNTVYLQMNSLKPEDTAVYYCATSPPEVWQRWYREYDYWGQVTQVTVSS | low polyreactivity
26 | QVQLVESGGGLVQAGGSLRLSCAASGLIFSYYVMGWYRPAPGKERELVAAINRSGGSTYYADSVKGRFTISRDNAKNTVYLQMNSLKPEDTAVYYCAAEKLGTNFEYWGQGTQVTVSS | high polyreactivity
27 | QVQLVESGGGLVQAGGSLRLSCAASGLIFTDYAMGWYRQAPGKDRELVATITARGGDTYYADSVKGRFTISRDNAKNTVYLQMNSLKPEDTAVYYCAAEYLSGGEAGMYYWGQGTQVTVSS | low polyreactivity
28 | QVQLVESGGGLVQAGGSLRLSCAASGLIFTRYTMGWYRQAPGKERELVAGISWSGGRTYYADSVKGRFTISRDKAKYTVYLQMNSLKPEDTAVYYCAADSYYSRAYDYWGQGTQVTVSS | high polyreactivity
29 | QVQLVESGGGLVQAGGSLRLSCAASGLIFTSYAMGWYRQATGKERELVAAISGSAASTYYADSVKGRFTISRDNAKNTVYLQMNSLKPEDTAVYYCAADYQGYTPSDGRYYWGQGTQVTVSS | low polyreactivity
30 | QVQLVESGGGLVQAGGSLRLSCAASGLIFTVNTMGWYRQAPGKERELVATIHTIGDGTNYADSVKGRFTISRDNAKNTVYLQMNSLKPEDTAVYYCAAYAGSVRPGDLYGYDYWGQGTQVTVSS | low polyreactivity
31 | QVQLVESGGGLVQAGGSLRLSCAASGLIFTYNAMGWYRQAPGKERELVASISWGGGSTYYADSVKGRFTISRDNAKHTVYLQMHSLKPEDTAVYYCNAKFKTVHTYGDTIFDRYDYWGQGTQVTVSS | low polyreactivity
32 | QVQLVESGGGLVQAGGSLRLSCAASGLIFVPYAMGWYIQAPGKERELVAAISRSGGSTYYADSVKGRFTISRDNAKNTVYLQMNSLKPEDTAVYYFATLNYYGEVEYWGQGTQVTVSS | high polyreactivity
33 | QVQLVESGGGLVQAGGSLRLSCAASGLIFVRYAMGWYRQAPGKERELVADISTSDGSTRYADSVKGRFTISRDNEKNTVYLQMNSLKPEDTAVYYCAGGSEYYSYGGVRFSFYYWGQGTQVTVSS | low polyreactivity
34 | QVQLVESGGGLVQAGGSLRLSCAASGLIFVSYAMGWYRQEPGKERELVASITDSDSSTYYADSVKGRFTISRDNAKNTVYLQMNSLKPEDTAVYSCATGGRTEIWYPTLDYWGQGTQVTVSS | low polyreactivity
35 | QVQLVESGGGLVQAGGSLRLSCAASGLIFVYNDMGWYRQAPGKERELVAGITGTGGNTYYADSVKGRFTISRDNAKNTVYLQMNSLKPEDTAVYYCAAQRSVFKSFRTTYVRYDYWGQGTQVTVSS | high polyreactivity
36 | QVQLVESGGGLVQAGGSLRLSCAASGLIFVYYTMGWYRQAPGKERELVAAIRSGGGTNYADSVKGRFTISRDNAKNTVYFQMNSLKPEDTAVYYCAASIRSYAYGGRKYNYWGQGSQVTVSS | high polyreactivity
37 | QVQLVESGGGLVQAGGSLRLSCAASGLIFWAYAMGWYRQAPGKERELVAAISWSGARTYYADSVKGRFTISRDNAKNTVYLQMNSLKPEDTAVYYCAAGVSSSSSGYEGDYWGQGTQVTVSS | high polyreactivity
38 | QVQLVESGGGLVQAGGSLRLSCAASGLIFWAYAMGWYRQAPGTDRELVAAINWRGGSTYYADSVKGRFTISRDTAKNTVYLQMNSLKPEDTAVYYCAADSYYDEYDYWGQGTQVTVSS | low polyreactivity
39 | QVQLVESGGGLVQAGGSLRLSCAASGLIFWINAMGWYRQAPWKERDLVAAITNSGGDTYYADSVKGRFTISRDNAKKTVYLQMNSLKTEDTAVYYCNADGTKWVRETYDYWGQGTQVTVSS | low polyreactivity
40 | QVQLVESGGGLVQAGGSLRLSCAASGLIFWRYDMGWYRQAPGKERELVAVITSGGNTYYADSVKGRFTISRDNAKNTVYLQMNSLKPEDTAVYYCNADTWRDDYDYWGQGTQVTVSS | low polyreactivity
41 | QVQLVESGGGLVQAGGSLRLSCAASGLIFYAYAMGWYRQAPGKEREFVAAINNSGGRTYYADSVKGRFTISRDNAKNTVYLQMYSLKPEDTAVYYCAVYSYYRRTYRREMDYWGQGTQVTVSS | high polyreactivity
42 | QVQLVESGGGLVQAGGSLRLSCAASGLIFYDNLGWYRQAPGKERELVAAISSSGGSTSYADSVKGRFTISRDNAKNTVYLQMNSLKPEDTAVYYCAADSYPAYLGFVGFDYWGQGTQVTVSS | low polyreactivity
43 | QVQLVESGGGLVQAGGSLRLSCAASGLIFYDNMGWYRQAPGKERELVAAISSSGGSRTYAYSVKGRFTISRDNAKNTVYFQMNSLKPEDTEVYYCALDKHYYGRYGVTYDYDYWGQGTQVTVSS | low polyreactivity
